According to publication PMC1807978:

Key:
Assay in all cases: EMSA
[1] = target: 4bFH (4bZf-M.HpaII F35H) (synthetic zinc finger; prokaryotic Mtase) (UniProt P15446)
[2] = target: 4cFH (4cZf-M.HpaII F35H) (synthetic zinc finger; prokaryotic Mtase) (UniProt P15446)
[3] = target: T1, M.HpaII wild type (no zinc finger) (UniProt P15446)
T1 sequence: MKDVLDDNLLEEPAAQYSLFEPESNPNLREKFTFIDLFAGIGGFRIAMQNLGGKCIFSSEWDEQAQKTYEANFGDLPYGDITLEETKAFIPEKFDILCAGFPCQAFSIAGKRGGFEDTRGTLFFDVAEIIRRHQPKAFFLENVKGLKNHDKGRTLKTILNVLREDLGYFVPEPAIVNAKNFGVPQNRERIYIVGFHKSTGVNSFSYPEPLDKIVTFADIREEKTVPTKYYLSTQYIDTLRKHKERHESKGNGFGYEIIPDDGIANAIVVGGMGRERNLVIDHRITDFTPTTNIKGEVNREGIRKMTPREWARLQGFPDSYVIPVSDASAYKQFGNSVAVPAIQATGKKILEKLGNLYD

TGGCCACGCCACTCCCCAGGCTCCATTCCAGGCCGGCGCAATGCTAGACTCGACGCGGCGCTCGTTGCCA (double strand) [Tb/c]
Kd [1]: 38 nM | Kd [2]: 3 nM | Kd [3]: 170 nM
